Measurements reported in PMC7065593 (Nature, 2019).

Biological target: Gαi1 subunit (human, UniProt P63096)
Test: cryo-EM structure

binding result: binds
B1: hNTSR1(∆ICL3; residues 20-418, A85L, ∆282-291) (receptor)
chain: QRAQAGLEEALLAPGFGNASGNASERVLAAPSSELDVNTDIYSKVLVTAVYLALFVVGTVGNTVTLFTLARKKSLQSLQSTVHYHLGSLALSDLLTLLLAMPVELYNFIWVHHPWAFGDAGCRGYYFLRDACTYATALNVASLSVERYLAICHPFKAKTLMSRSRTKKFISAIWLASALLAVPMLFTMGEQNRSADGQHAGGLVCTPTIHTATVKVVIQVNTFMSFIFPMVVISVLNTIIANKLTVMVRQAAEQGQVCTVGGPGRVQALRHGVRVLRAVVIAFVVCWLPYHVRRLMFCYISDEQWTPFLYDFYHYFYMVTNALFYVSSTINPILYNLVSANFRHIFLATLACLCPVWRRRRKRPAFSRKADSVSSNHTLSSNATRETLY
